The text below walks through data of patent US20250171531A1 (ORIONIS BIOSCIENCES, published 2025).

For assay [1], the target named is T1, recombinant IL-2 (Acro Biosystems) (UniProt P60568 21-153).
T1 construct: also called Interleukin-2; wild type recombinant IL-2
The experiment in a line: BLI, biotinylated IL-2 on streptavidin sensors, seven concentrations of construct as analyte. An excerpt:
(§1) In brief, recombinant IL-2 (Acro Biosystems) was biotinylated using the Pierce Antibody Biotinylation Kit for IP (ThermoFisher) and loaded on Streptavidin sensors. […] Sensorgrams and calculated binding kinetics provided in FIG. 2 illustrate that (i) all anti-IL-2 constructs clearly bind to biotinylated IL-2; (ii) for both anti-IL-2 antibody scFv variants, the VL-VH configuration (referred to as scFv_v2) seems to work best; and (iii) TCB2-based anti-IL-2 constructs tend to associate faster, while NARA1 anti-IL-2 constructs dissociate slower.
On the technique in general: BLI is a label-free optical method that tracks binding on a fibre tip over time.

Assay [2] concerns the target CD8alpha on CD8 positive T cells of PBMCs (UniProt P01732 22-235, limits assumed). Put plainly: cell-based or functional assay.
The target in assay [3] is T1, recombinant IL-2 (Acro Biosystems). Put plainly: BLI (Octet RED96).
Source text: as §1

T1 sequence (P60568 21-153 limits assumed): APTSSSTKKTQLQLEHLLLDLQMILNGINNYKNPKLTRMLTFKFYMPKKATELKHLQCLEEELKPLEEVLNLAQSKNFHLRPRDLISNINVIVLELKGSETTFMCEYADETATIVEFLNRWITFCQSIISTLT
Sequence of CD8alpha on CD8 positive T cells of PBMCs (P01732 22-235 limits assumed): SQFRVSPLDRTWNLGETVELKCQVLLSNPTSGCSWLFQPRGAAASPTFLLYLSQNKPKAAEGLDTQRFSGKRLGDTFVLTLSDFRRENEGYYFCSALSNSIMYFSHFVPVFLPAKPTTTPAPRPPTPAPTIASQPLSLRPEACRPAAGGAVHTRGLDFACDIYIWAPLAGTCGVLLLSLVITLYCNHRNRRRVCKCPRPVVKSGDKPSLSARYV

B1: anti-IL-2 Ab NARA1 scFv_VL-VH-3*GGGGS-anti-CD8 OKT8 scFv_VH-VL-6*His (bispecific antibody)
chain: DIVLTQSPASLAVSLGQRATISCKASQSVDYDGDSYMNWYQQKPGQPPKLLIYAASNLESGIPARFSGSGSGTDFTLNIHPVEEEDAATYYCQQSNEDPYTFGGGTKLEIKGGGGSGGGGSGGGGSQVQLQQSGAELVRPGTSVKVSCKASGYAFTNYLIEWVKQRPGQGLEWIGVINPGSGGTNYNEKFKGKATLTADKSSSTAYMQLSSLTSDDSAVYFCARWRGDGYYAYFDVWGAGTTVTVSSGGGGSGGGGSGGGGSEVQLVQSGAEVKKPGASVKVSCKASGFNIKDTYIHWVRQAPGQGLEWIGRIDPANDNTLYASKFQGRATITADTSTSTAYLELSSLRSEDTAVYYCGRGYGYYVFDHWGQGTLVTVSSGGGGSGGGGSGGGGSDVQITQSPSSLSASVGDRVTITCRTSRSISQYLAWYQEKPGKTNKLLIYSGSTLQSGIPSRFSGSGSGTDFTLTISSLQPEDFATYYCQQVNEFPPTFGQGTKVEIKHHHHHH
notes: Single chain of two scFvs with a C-terminal His6 tag; Leader (residues 1-19) left out
Turning to B1, the binding result in assay [1] is listed as “binds”.

B2: anti-IL-2 Ab TCB2 scFv_VH-VL-3*GGGGS-anti-CD8 OKT8 scFv_VH-VL-6*His (bispecific antibody)
chain: EVQLQQSGAELARPGASVKLSCKASGYTFTTYWIQWVKQRPGQGLEWIGAIYPGDGDTRYIQNFKGKATLTADKSSSTAYMQLSSLASEDSAVYYCARSLATRGFYAMDYWGQGTSVTVSSGGGGSGGGGSGGGGSDIVMTQSPASLSMAIGEKVTIRCITSTDIDDDMNWYQQKPGEPPKLLISEGNTLRPGVPSRFSSSGYGTDFVFTIENMLSEDVADYYCLQSDNLPYTFGGGTKLEIKGGGGSGGGGSGGGGSEVQLVQSGAEVKKPGASVKVSCKASGFNIKDTYIHWVRQAPGQGLEWIGRIDPANDNTLYASKFQGRATITADTSTSTAYLELSSLRSEDTAVYYCGRGYGYYVFDHWGQGTLVTVSSGGGGSGGGGSGGGGSDVQITQSPSSLSASVGDRVTITCRTSRSISQYLAWYQEKPGKTNKLLIYSGSTLQSGIPSRFSGSGSGTDFTLTISSLQPEDFATYYCQQVNEFPPTFGQGTKVEIKHHHHHH
notes: as for B1
Regarding B2, in assay [1], the binding result is “binds”.

B3: 'knob-in-hole' Fc-Anti-IL-2 construct (TCB2 scFv_v2-hFc3 + hFc4-OKT8 scFv) (bispecific antibody)
chain 1: DIVMTQSPASLSMAIGEKVTIRCITSTDIDDDMNWYQQKPGEPPKLLISEGNTLRPGVPSRFSSSGYGTDFVFTIENMLSEDVADYYCLQSDNLPYTFGGGTKLEIKGGGGSGGGGSGGGGSEVQLQQSGAELARPGASVKLSCKASGYTFTTYWIQWVKQRPGQGLEWIGAIYPGDGDTRYIQNFKGKATLTADKSSSTAYMQLSSLASEDSAVYYCARSLATRGFYAMDYWGQGTSVTVSSGGSGGSGGSGGSGGSDKTHTCPPCPAPEAAGGPSVFLFPPKPKDTLMISRTPEVTCVVVDVSHEDPEVKFNWYVDGVEVHNAKTKPREEQYNSTYRVVSVLTVLHQDWLNGKEYKCKVSNKALPAGIEKTISKAKGQPREPQVCTLPPSRDELTKNQVSLSCAVKGFYPSDIAVEWESNGQPENNYKTTPPVLDSDGSFFLVSKLTVDKSRWQQGNVFSCSVMHEALHNHYTQKSLSLSPGK
chain 2: not shown
For B3, the “IL-2 driven STAT5 phosphorylation in CD8+ over Treg cells” value in assay [2] worked out at 10 fold.

B4: anti-IL-2 Ab NARA1 scFv_VH-VL-3*GGGGS-anti-CD8 OKT8 scFv_VH-VL-6*His (bispecific antibody)
chain: QVQLQQSGAELVRPGTSVKVSCKASGYAFTNYLIEWVKQRPGQGLEWIGVINPGSGGTNYNEKFKGKATLTADKSSSTAYMQLSSLTSDDSAVYFCARWRGDGYYAYFDVWGAGTTVTVSSGGGGSGGGGSGGGGSDIVLTQSPASLAVSLGQRATISCKASQSVDYDGDSYMNWYQQKPGQPPKLLIYAASNLESGIPARFSGSGSGTDFTLNIHPVEEEDAATYYCQQSNEDPYTFGGGTKLEIKGGGGSGGGGSGGGGSEVQLVQSGAEVKKPGASVKVSCKASGFNIKDTYIHWVRQAPGQGLEWIGRIDPANDNTLYASKFQGRATITADTSTSTAYLELSSLRSEDTAVYYCGRGYGYYVFDHWGQGTLVTVSSGGGGSGGGGSGGGGSDVQITQSPSSLSASVGDRVTITCRTSRSISQYLAWYQEKPGKTNKLLIYSGSTLQSGIPSRFSGSGSGTDFTLTISSLQPEDFATYYCQQVNEFPPTFGQGTKVEIKHHHHHH
notes: Single chain of two scFvs with a C-terminal His6 tag
For the molecule B4, the binding result in assay [3] is listed as “binds”.

B5: anti-IL-2 Ab TCB2 scFv_VL-VH-3*GGGGS-anti-CD8 OKT8 scFv_VH-VL-6*His (bispecific antibody)
chain: DIVMTQSPASLSMAIGEKVTIRCITSTDIDDDMNWYQQKPGEPPKLLISEGNTLRPGVPSRFSSSGYGTDFVFTIENMLSEDVADYYCLQSDNLPYTFGGGTKLEIKGGGGSGGGGSGGGGSEVQLQQSGAELARPGASVKLSCKASGYTFTTYWIQWVKQRPGQGLEWIGAIYPGDGDTRYIQNFKGKATLTADKSSSTAYMQLSSLASEDSAVYYCARSLATRGFYAMDYWGQGTSVTVSSGGGGSGGGGSGGGGSEVQLVQSGAEVKKPGASVKVSCKASGFNIKDTYIHWVRQAPGQGLEWIGRIDPANDNTLYASKFQGRATITADTSTSTAYLELSSLRSEDTAVYYCGRGYGYYVFDHWGQGTLVTVSSGGGGSGGGGSGGGGSDVQITQSPSSLSASVGDRVTITCRTSRSISQYLAWYQEKPGKTNKLLIYSGSTLQSGIPSRFSGSGSGTDFTLTISSLQPEDFATYYCQQVNEFPPTFGQGTKVEIKHHHHHH
notes: as for B1
In the case of B5, the binding result in assay [1] is reported as “binds”.
